Source: patent US7670806B2, “ADP-ribosyl acceptor hydrolase 3 (ARH3) polypeptides and methods of use” (The United States of America as represented by the …, priority 2005, dated 2010)

Assays:
ADP-ribose binding assay = details: 1 μM ARH3, 3 μM [14C]ADP-ribose, 30° C., 16 h
Description: ADP-ribose binding assay. [^14C]ADP-ribose was generated by incubation overnight at 30° C. of 80 μM (10 μCi) [adenine-U-^14C]NAD with 50 μl of RT6.2 solution (5 nmol/h NADase activity; gift from Dr. Sunhee Park, NHLBI, National Institutes of Health, Bethesda, Md.) in 250 μl of 50 mM potassium phosphate, pH 7.5, and purified by HPLC using Zorbax Sax column as described above. [^14C]ADP-ribose, eluted at 40 min, was stored at −20° C.
To assess protein binding, 1 μM human wild type or D77N/D78N mutant ARH3 was incubated (30° C., 16 h) with 3 μM [^14C]ADP-ribose in 50 mM potassium phosphate buffer, pH 7.5, without or with 10 mM MgCl2, and/or 5 mM DTT (total volume 100 μl). A sample (90 μl) was applied to a column (0.5×4 cm) of Affi-Gel boronate (100 mg, Bio-Rad) which was equilibrated with 0.1 M glycine, pH 9.0, containing 0.1 M NaCl, with or without 10 mM MgCl2, and/or 5 mM DTT, and eluted with five 1-ml portions of the same solution. The total eluate, containing ARH with bound ADP-ribose was collected for liquid scintillation counting.
After incubation of wild-type or mutant ARH3 (1 μM) with [^14C]ADP-ribose (3 μM) (30° C., 16 h) without or with 10 mM MgCl2 and/or 5 mM DTT (total volume 100 μl), unbound ADP-ribose was removed by binding to Affi-gel boronate (Bio-Rad), and ARH3 with ADP-ribose bound, was collected for radioassay. […]

[1] = Hydrolysis of O-acetyl-[14C]ADP-ribose by ARH proteins / PARG (RP-HPLC); format: biochemical; details: 1.5 pmol wild type or mutant human ARH3 or 20 mU PARG, 2 h at 30° C.; mouse ARH1, 2, 3
Description: FIG. 13A is a graph illustrating the results from incubation of 1.5 pmol of mouse ARH3 with or without 5 mM DTT and/or 10 mM MgCl2 as described in FIG. 11B with incubation for 1 h at 30° C. FIG. 13B is a graph illustrating the results from incubation of 1.5 pmol of wild type or mutant human (D77-78) ARH3 or 20 mU of PARG for 2 h at 30° C. *D77,78, assays incubated with 15 pmol of mutant human ARH3 (D77, D78).
FIG. 14A is a graph of the results from incubation with the indicated amount of mouse ARH1, 2, or 3 for 2 h at 30° C. FIG. 14B is a graph of the results from incubation with 230 pmol of mouse ARH1 at 30° C. for the indicated time.
Mouse ARH3 (2 pmol) and 2.5 μM O-acetyl-[^14C]ADP-ribose (5,000 cpm) in 200 μl of buffer containing 50 mM potassium phosphate (pH 7.0), 10 mM MgCl2 and 5 mM DTT were incubated for 2 h at 30° C., before separation of substrate and products using RP-HPLC as described below.
Hydrolysis of O-acetyl-[^14C]ADP-ribose catalyzed by ARH3. Assays containing the indicated concentration of O-acetyl-[^14C]-ADP-ribose (0.1 to 2 nmol, 1,000 to 20,000 cpm) and 1.5 pmol of ARH3 in 200 μl of buffer (50 mM KPO4 (pH 7.0), 10 mM MgCl2, 5 mM DTT) were incubated at 30° C. for 20 min. Substrate and products were separated using RP-HPLC. Amounts of product were corrected for ADP-ribose produced in the absence of ARH3 before calculation of hydrolysis rates.
Because O-acetyl-ADP-ribose was known to be hydrolyzed at alkaline pH Tanny and Moazed (2001), Proc Natl Acad Sci USA. 98(2):415-20, Epub Dec. 26, 2000), it was generated at pH 7.0 in the presence of [^14C-adenine] β-NAD, Sir2, and acetylated histone H3 peptide (FIG. 11A), and the products of Sir2 and ARH3 were analyzed using reverse-phase HPLC at the same pH (FIGS. 11A,B). The products of the ARH3-catalyzed reaction were also analyzed by high resolution-polyacrylamide gel electrophoresis (FIG. 11C). O-acetyl-[^14C]ADP-ribose hydrolase activity was time and ARH3 dependent (FIG. 12) and essentially completely dependent on Mg^2+ (FIG. 13A).
O-acetyl-ADP-ribose hydrolysis by ARH1 was time and ARH1 dependent (FIG. 14b).

B1: ARH3 (D77N/D78N): human ARH3 mutant with dual amino acid replacement D77N/D78N (protein)
chain: MAAAAMAAAAGGGAGAARSLSRFRGCLAGALLGDCVGSFYEAHDTVDLTSVLRHVQSLEPDPGTPGSERTEALYYTNNTAMARALVQSLLAKEAFDEVDMAHRFAQEYKKDPDRGYGAGVVTVFKKLLNPKCRDVFEPARAQFNGKGSYGNGGAMRVAGISLAYSSVQDVQKFARLSAQLTHASSLGYNGAILQALAVHLALQGESSSEHFLKQLLGHMEDLEGDAQSVLDARELGMEERPYSSRLKKIGELLDQASVTREEVVSELGNGIAAFESVPTAIYCFLRCMEPDPEIPSAFNSLQRTLIYSISLGGDTDTIATMAGAIAGAYYGMDQVPESWQQSCEGYEETDILAQSLHRVFQKS
- [14C]ADP-ribose binding (ADP-ribose binding assay): similar
- O-acetyl-ADP-ribose hydrolysis (in words) [1]: apparently inactive
